Experimental data taken from patent US20240209065A1.
Like-named read-outs stand apart in the source and are kept apart here.

Key:
[1] = biological target: SARS-CoV-2 Omicron BA.2 RBD, aa 319-541, C-terminal 6xHis-tag (SARS-CoV-2) (UniProt P0DTC2)
[2] = biological target: SARS-CoV-2 Omicron BA.4/5 RBD, aa 319-541, C-terminal 6xHis-tag (SARS-CoV-2) (UniProt P0DTC2)
[3] = biological target: S protein of authentic SARS-CoV-2 Omicron BA.1 virus (SARS-CoV-2) (UniProt P0DTC2); assay: cell-based or functional assay
[4] = biological target: S protein of authentic SARS-CoV-2 Omicron BA.5 virus (SARS-CoV-2) (UniProt P0DTC2); assay: cell-based or functional assay
[5] = biological target: SARS-CoV-2 Omicron BA.2 RBD, aa 319-541, C-terminal 6xHis-tag (SARS-CoV-2) (UniProt P0DTC2); assay: ELISA, plates coated with RBD

DXP-604 IgG (antibody) showed an EC50 [1] of 9.48 nM, an EC50 [2] of 1.6 nM and an IC50, microneutralization assay with authentic virus [3] of 22.9 nM. The IC50, microneutralization assay with authentic virus [4] was 12.4 nM and the EC50 [5] was 9.48 nM.
